Experimental data published in a protein production outcome set (Wang et al. 2014).

Assay: label from the status in PepcDB records
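Also: failed if final PepcDB status was selected cloned or expressed and not failed if soluble or beyond.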

## KGESYKGKVAVASVVLNRTEKKGFPDTIRGVIYQKNAFEPVANGSINQKPDKESIEAAEEALSSKNRETDAIFFYNPKTASDNWIRSRKIVEKIGRHVFAV
  protein production: not failed

## KIADWLELHPAEKRKPWCVGIPRLAELAWQRVVAQRDTFGEAQLAHRIRDYLPEQGQLFVGNSLVVRLIDALSQLPAGYPVYSNRGASGIDGLLSTAAGVQRASAKSTLAIVGDLSALYDLNALALLRQVSAPFVLIVVNNNGGQIFSLLPTPQSKRERFYLMPQNVHFDHAAAMFNLRYHRPENWEELESALAGAWRTPATTVIELVVNDTDGAQTLQQLLAQVSHL
  protein production: failed

## KIIHIDCDCFYAALEMRDDPSLRGKALAVGGSPDKRGVVATCSYEARAYGVRSAMAMRTALKLCPDLLVVRPRFDVYRAVSKQIHAIFRDYTDLIEPLSLDEAYLDVSASPHFAGSATRIAQDIRRRVAEELHITVSAGVAPNKFLAKIASDWRKPDGLFVITPEQVDGFVAELPVAKLHGVGKVTAERLARMGIRTCADLRQGSKLSLVREFGSFGERLWGLAHGIDERPVEVDSRRQSVSVECTFDRDLPDLAACLEELPTLLEELDGRLQRLDGSYRPDKPFVKLKFHDFTQTTVEQSGAGRDLESYRQLLGQAFARGNRPVRLIGVGVRLLDLQGAHEQLR
  protein production: failed

## KKGRFRERYSTRILDALPDMLTVFDHNANIVELASSPTTNHVEGTTSDSIINSNVKDIVPEEAYESVRHNMDKVIHTGKSSTAEHSLMLDGVLHHYENRIFPLDDQYLLCMCRDVS
  protein production: failed

## KKPEGKPDQKFDQKQELGRVIHLSNLPHSGYSDSAVLKLAEPYGKIKNYILMRMKSQAFIEMETREDAMAMVDHCLKKALWFQGRCVKVDLSEKYKKLV
  protein production: not failed

## KKYSYAVTTCIKHINKNVYDGISLNELANHLEITPTYLSKLFKKEMGITLSEYIQRERVEEAKKLLTLTTYSLSDICAWLNFNDQSYFIRVFKKITSMTPRQYREKYTV
  protein production: failed

## KLGMKPVSDVSRVTIKRAKNVLFVISKPDVYKSPNAETYVIFGEAKVDDLSSQLQTQAAQRFKMPDVTSMLPNAGSEATMAPLAEEEDEDDVDDTGVEARDIDLVMTQAGVSKAKAVSALKANDGDIVSAIMELTT
  protein production: failed

## KLLAEALELTEDQYVVSFQSQFGRAKWVTPSTQDLFGKLPKQGVTELDVFCPGFLADCLETMEEIALMGREQFYEAGGKSYRYIPCLNDNPDWIDALVALAEENLGSWR
  protein production: failed

## KLPFDYQVNSTRHFMRELNRLGVTGAIDAGGGFQNYPDDYAVIQKLDEEGLLTIRLAYNLFTQKPKGEKDDFLNWTKTSKYKQGNDYFRHNGAGEMLVFSAADFEDFRVPRPDMPPEMEGELEEVVRILVQNKWPWRLHATYDETISRALDVFEKVNQDTPLDGLHWFFDHAETISDRSIDRIAALGGGIAVQHRMAYQGEYFVERYGFGAAEATPPVRRILDSGVKVSAGTDATRVASYNPWVSLSWLVTGRTVGGLRITPQRNCLDRETALRMWTENVTWFSNEEGN
  protein production: failed

## KLRDLDIIVTAPPAPGWGGRYWILVKLTTDDGITGWGECYAASVGPEAMRAVIEDVFARHMEGENPENIELMFRRVYSSGFTQRPDLTAIGAFSGLEIACWDILGKARGRPVWALLGGKMNPRIRAYTYLYPLPHHPITPFWTSADMAAESAADCVARGYTAVKFDPAGPYTLRGGHMPAMTDISLSVEFCRKIRAAVGDKADLLFGTHGQFTTAGAIRLGQAIEPYSPLWYEEPVPPDNVGAMAQVARAVRIPVATGERLTTKAEFAPVLREGAAAILQPALGRAGGIWEMKKVAAMAEVYNAQMAPHLYAGPVEWAANVHFAASIPNILMCESIETPFHDALIKGSIRVEGGYITPPEAPGLGIEVDEALARANPYHGTGLHLEMQEASCDYTNGNSFAGGAPHEEG
  protein production: not failed

## KMPSPYSHKEFVKEIAPTAQKLSKIYGVRSSIIIGQAALDSHFGSTLLASKYHNLFSIEASPGQGAVRLKSHEYKNGRWQEVTNRYLVYESWKESLYDYMAILHGNKIWDKALYTTMMTSSGYKTVARALQAAGFNSDPNYADKLIAVIEENNL
  protein production: not failed

## KRIQYSVITILVLLIAVILIYMFSPLSKIAHVNINGNNHVSTSKINKVLGVKNDSRMYTFSKKNAINDLEEDPLIKSVEIHKQLPNTLNVDITENEIIALVKYKGKYLPLLENGKLLKGSNDVKINDAPVMDGFKGTKEDDMIKALSEMTPEVRRYIAEVTYAPSKNKQSRIELFTTDGLQVIGDISTISKKMKYYPQMSQSLSRDSSGKLKTRGYIDLSVGA
  protein production: failed

## KRREIPLKVLVKAVLFACMLMRKTMASRVRVTILFATETGKSEALAWDLGALFSCAFNPKVVCMDKY
  protein production: failed

## KRRIRQLELQVRMLEADKERLERELSRLRSEMSRLRQPPAFAGSVIEVLDDDRAIVQNYNGPRFVVRIAPWIDKSKLRPGTRVALDQRTMAIIEILPASKDPAVLGFEVVERPN
  protein production: not failed

## KRVFGFVSAKGGDGGSCIAANFAFALSQEPDIHVLAVDISLPFGDLDMYLSGNTHSQDLADISNASDRLDKSLLDTMVQHISPSLDLIPSPATFEKIVNIEPERVSDLIHIAASFYDYIIVDFGASIDHVGVWVLEHLDELCIVTTPSLQSLRRAGQLLKLCKEFEKPISRIEIILNRADTNSRITSDEIEKVIGRPISKRIPQDEDAMQESLLSGQSVLKVAPKSQLSKTIVDWALHLNGVSRPNKRSIWERLKIK
  protein production: not failed

## KSPGWMKHLDQEQAVHSESETYGISSWVYSARLPFHPQRFQHFLAHPWTNGTLLRCKGYIWNAKCYQDIGMLVQTGGQFEWEIVGRWWNFINQSDWPQDHYRRDSIFEKWDERTGDCRQEIVFIGQNIDWNTLKHQLDDCLLTLQEIEDGPEAWLNY
  protein production: failed

## KVILYARVSSSTQKDELVNQVKYLEEQVKEYDLVITDIGSGLNMKRKGFLKLLRMILNNEVSRVVVAYPDRLVRVGFEILEEVCKAHNCEIVVLNQEDKEEELVEDLMSALVSFSGKLYGMRSHEYEKVKKCAEELKNW
  protein production: not failed

## KVKELNLHELCAVCLEDFKPRDELGICPCKHAFHRKCLIKWLEVRKVCPLCNMPVLQLAQL
  protein production: not failed

## KVSVNDIMVPRNEIVGIDINDDWKSIVRQLTHSPHGRIVLYRDSLDDAISMLRVREAYRLMTEKKEFTKEIMLRAADEIYFVPEGTPLSTQLVKFQRNKKKVGLVVDEYGDIQGLVTVEDILEEIVGDFT
  protein production: not failed

## KYTQNNFITGVRAINEFCLKSSDLEQLRKIRRRSPHEDTESFTVYLRSDVEAKSLEVWGSPEALAREKKLRKEAEIEYRERLFRNQKILREYRD
  protein production: not failed

## LDAILIADDEGCYVDVNAAACELFGVSREELLASTIADFAAPEFNFTQAWQQFREQEQMSGEFQLHRPNGTVRATEFAAVANFIPHRHLSIIRDVSDRQQAKANLQNSEQRLQLALSASS
  protein production: failed

## LEKAGDSVEITNEEAVIQYVNPAFENITLYNAREAMNKTVASLLRSPVEDAQLFEEINQTLKSGNTWKGQIRSRKKDGSYWVAQTIIVPVMDDELGRITQHIAIKQDIT
  protein production: failed

## LESKIVDISTRFINTPIDDLDREIEAALQAIGAFVDADRSYVFLFDDEAATMSNTHEWRTEATASTQSRLQNIPYAETPWFMARMRRREGPLRVPRLEDLPPDAAGLRQRLEAGNVQSLLVLPMLNDQDLIGFVGFDAVRQQRDWDADTVMLLRVLSDAISNALQRKTAEKEMLAAKEEAEDANRMKS
  protein production: failed

## LFTHRPIHTHTVTFSGGGENSAMYASIGFYDDRGWTLADHVKRITANIKNSFYWNEDKIKATISAQGNLRNQNSPGTIPQRRNTVIGTFERDFDINPFSYALSTSRTLRPHNADGKREFYRNNWAPFNILNEYENNYLKTEVLDLKLQGELSYRLNDHIEVKGLAMVRHAVTKSSHFIAEASNVVQAFRANETPYVARENIYLLKNKDDPMQLPGVALTHGGIFNKTETSLRSYLGRLALDYNRQLSEHNIRAFGFTEIRYADRSMNPFQGYGIQYDRGNQVFSNPLIFEKLANEGDTYFSLTERYERGVTLSGSATYGYAEKYIFNGVFNYEGANTAGKYSRSRWLPTWNIGAKWNLDQEKFMRKHTTISRLALRTSYGLTAKMNEQAVNSTTVFKHVMVNRTLLKDRENALRILHLENRDLTWEKMYELNFGLELGLFGNRISATFDVYQRNSFDLIDLIRTSGVGGQYYKYANFGDMRTRGVELAIQTQNILTDKFSWSTTVT
  protein production: failed
